Sequences and labels used below:
B1: mRNA-splicing (parent)
chain: AGUUGCUGCUGGGAGCUCCAGCACAGUGAAAUGGACAGAAGGGCAGAGCAA

Variants of B1 are the subject of this series. Kind of series: exon inclusion enrichment index; higher = more inclusion; WT1 exon 5 minigene, HEK293.
As to AGUUGCUGCUGGGAGCUCCAGGGCAGUGAAAUGGACAGAAGGGCAGAGCAA, the “exon inclusion enrichment index” value was 1.07.

AGUUCUUCUCGGGAGCUCCAGCACAGUGAACAGGACAGAAGGGCAGAGCAA: the “exon inclusion enrichment index” value turned out to be 1.46.

In the case of AGUUGAACAAGGGAGCUCCAGCACAGUGAAAUGGACAGAAGGGCAGAGCAA, the “exon inclusion enrichment index” value was determined as 0.471. With AGUUCGGCCCGGGAGCUCCAGCACAGUGAAAUGGACAGAAGGGCAGAGCAA, the “exon inclusion enrichment index” value turned out to be 1.57. As to AGUUGCUGCUGGGAGCUCCAGCACAGUGAAAUGGACAGAAGUUCAGAGCAA, the “exon inclusion enrichment index” value came to 0.54. With AGUUGACGACGGGACUUCCAGCACAGUGAAAUGGACAGAAGGGCAGAGCAA, the “exon inclusion enrichment index” value was found to be 3.32. For the variant AGUUGCUGCUGGGAGCUCCAGCACAGUGAAAUGGACAGAAGGAGAGAGCAA, the “exon inclusion enrichment index” value worked out at 0.723. Turning to AGUUCACACAGGGAGCUCCAGCACAGUGAAAUGGACAGAAGGGUGGAGCAA, the “exon inclusion enrichment index” value was 0.0445. AGUUUCUUUUGGGAGCUCCAGCACAGUGAAAUGGAGUGAAGGGCAGAGCAA: the “exon inclusion enrichment index” value is 0.0469. Take AGUUACCACCGGGAGCUCCAGCACAGUGAAAUGGACAGAAGGGCUAAGCAA: the “exon inclusion enrichment index” value is 1.75. Turning to AGUUGAAGAAGGGAGCUCCAGUCCAGUGAAAUGGACAGAAGGGCAGAGCAA, the “exon inclusion enrichment index” value came to 0.267. AGUUGCUGCUGGGAGCUCUUGCACAGUGAAAUGGACAGAAGGGCAGAGCAA: the “exon inclusion enrichment index” value came to 1.01. For AGUUACCACCGGGAGCUCCAGCACAGUGAAAUGGACAGGAGGGCAGAGCAA, the “exon inclusion enrichment index” value came to 1.33.

Regarding AGUUGAAGAAGGGAGCUCCAGCACAGUGAAAUCGACAGAAGGGCAGAGCAA, the “exon inclusion enrichment index” value is 1.04. For the variant AGUUAUAUAUGGGAGCUCCAGCACAGUGAAAUGGACAGAAGAUCAGAGCAA, the “exon inclusion enrichment index” value is 1.03.

With AGUUCACACAGGGAGCUCCCUCACAGUGAAAUGGACAGAAGGGCAGAGCAA, the “exon inclusion enrichment index” value was found to be 0.0192. Consider AGUUGACGACGGGAGCUAGAGCACAGUGAAAUGGACAGAAGGGCAGAGCAA, for which the “exon inclusion enrichment index” value came out at 0.998. Regarding AGUUGAAGAAGGGAGCUCCAAAACAGUGAAAUGGACAGAAGGGCAGAGCAA, the “exon inclusion enrichment index” value was found to be 0.228.

As for AGUUAUAUAUCCGAGCUCCAGCACAGUGAAAUGGACAGAAGGGCAGAGCAA, the “exon inclusion enrichment index” value worked out at 0.0512. The figure for AGUUCGCGCCGGGAGCUCCAGCACAGUGCUAUGGACAGAAGGGCAGAGCAA is 3.02; for AGUUCGCGCCGGGAGCUCCAGCACAGUGCGAUGGACAGAAGGGCAGAGCAA it is 5.17; for AGUUCGCGCCGGGAGCUCCAGCACAGUGAAGUGGACAGAAGGGCAGAGCAA it is 3.79. As for AGUUAGGGAUGGGAGCGCCAGCACAGUGAAAUGGACAGAAGGGCAGAGCAA, the “exon inclusion enrichment index” value came to 0.00284. Regarding AGUUGCUGCUGGAAGCUCCAGCACAGUGAAAUGGACAGAAGGGCAGAGCAA, the “exon inclusion enrichment index” value was 0.135. With AGAAAUAUAUGGGAGCUCCAGCACAGUGAAAUGGACAGAAGGGCAGAGCAA, the “exon inclusion enrichment index” value is 0.0823. In the case of AGUUCGCGCCGGGAGAGCCAGCACAGUGAAAUGGACAGAAGGGCAGAGCAA, the “exon inclusion enrichment index” value was 3.25. Turning to AGUUCACACAGGGAGCUCCAGCACAGUCGAAUGGACAGAAGGGCAGAGCAA, the “exon inclusion enrichment index” value is 0.241. As for AGUCGCUUUUGGGAGCUCCAGCACAGUGAAAUGGACAGAAGGGCAGAGCAA, the “exon inclusion enrichment index” value turned out to be 2.06. With AGUUCGCGCCGGGAGCAUCAGCACAGUGAAAUGGACAGAAGGGCAGAGCAA, the “exon inclusion enrichment index” value stood at 3.37. Turning to AGUUCCUACAGGGAGCUCCAGCACAGUGAAAUGGACAGAAGGGCAGAGCAA, the “exon inclusion enrichment index” value was 0.0176. The figure for AGUUACUCUCGGGAGCUCCAGCACAGUGAAAUGGACAGAAGGGCAGAGCAA is 1.05. The value for AGUUCACACAGGGAGCUCGAGCACAGUGAAAUGGACAGAAGGGCAGAGCAA was 0.078; that for AGUCGGGGAUGGGAGCUCCAGCACAGUGAAAUGGACAGAAGGGCAGAGCAA was 0.355; that for AGUUCUUCUCGGGAGCUCCAGCACAGUGAAAUGGACAGAAGUACAGAGCAA was 3.34. The value for AGUUCUCACCGGGAGCUCCAGCACAGUGAAAUGGACAGAAGGGCAGAGCAA was 1.77. In the case of AGUUUGAGAAGGGAGCUCCAGCACAGUGAAAUGGACAGAAGGGCAGAGCAA, the “exon inclusion enrichment index” value came to 0.147. The value for AGUUAUAUAUGGGGCCUCCAGCACAGUGAAAUGGACAGAAGGGCAGAGCAA was 0.0123; that for AGUUCACACAGGGAGCUCCAGCACAGUGUGAUGGACAGAAGGGCAGAGCAA was 0.125.

As to AGUUGCUGCUGGGAGCUCCAGCACAGUGAAAUGGACGCAAGGGCAGAGCAA, the “exon inclusion enrichment index” value turned out to be 0.249.

As for AGUUAUAUAUGGGAGCUCCUUCACAGUGAAAUGGACAGAAGGGCAGAGCAA, the “exon inclusion enrichment index” value is 0.0251.

On to AGUUAUAUGGGGGAGCUCCAGCACAGUGAAAUGGACAGAAGGGCAGAGCAA, for which the “exon inclusion enrichment index” value amounted to 0.0235. As for AGUUAUAUAUGGGAGCUCCAGCACAGUGAAAUGGACAGACCGGCAGAGCAA, the “exon inclusion enrichment index” value was found to be 0.455. AGUUGCUGCUGGGAGCUCCAGCACAGUGAACGGGACAGAAGGGCAGAGCAA: the “exon inclusion enrichment index” value was determined as 0.373. In the case of AGAGGAAGAAGGGAGCUCCAGCACAGUGAAAUGGACAGAAGGGCAGAGCAA, the “exon inclusion enrichment index” value came out at 0.245. The value for AGUUGCUGCUGGGAAAUCCAGCACAGUGAAAUGGACAGAAGGGCAGAGCAA was 0.03; that for AGUUUCUUUUGGGAGCUCCAGCACAGUAAAAUGGACAGAAGGGCAGAGCAA was 0.0119. As for AGUUAGGGAUGGGAGCUCCAGCACAGUGAAAUGAUCAGAAGGGCAGAGCAA, the “exon inclusion enrichment index” value turned out to be 0.00125. Consider AGUUGAAGAAGGGAGCUCCAGCACUGUGAAAUGGACAGAAGGGCAGAGCAA, for which the “exon inclusion enrichment index” value worked out at 1.04. Take ACUUAGGGAUGGGAGCUCCAGCACAGUGAAAUGGACAGAAGGGCAGAGCAA: the “exon inclusion enrichment index” value worked out at 0.0065. For the variant AGUUCACACAGGGAGCUCCAGCACAGUGAGAUGGACAGAAGGGCAGAGCAA, the “exon inclusion enrichment index” value is 0.0971.

With AGUUCGCGCCGGGAGCUCCAGCACAGUGAAAUGGACAGAAGGGCCCAGCAA, the “exon inclusion enrichment index” value was 2.31.

The values above are taken from the RNAGym collection of RNA variant scans (doi:10.1101/gr.219683.116).
